Experimental data: patent publication US12129308 (Merck KGaA, dated 2024)
Where a chain is given by its changes, count along the chain named.

B1: C010100683 (bispecific antibody)
chain: EVQLVESGGGLVQPGGSLRLSCAASGFAFSAAYMSWVRQAPGKGLEWVSSISDDGSKTYYADSVKGRFTISRDNSKNTVYLQMNSLRPEDTAVYYCNTGYGATTTRPGRYWGQGTLVTVSSGGGGSGGGGSGGGGSGGGGSGGGGSGGGGSGGGGSEVQLVESGGGLVQPGGSLRLSCAASGSTFIINVVRWYRRAPGKQRELVATISSGGNANYVDSVRGRFTISRDNSKNTVYLQMNSLRPEDTAVYYCNVPTTHYGGVYYGPYWGQGTLVTVSSGGGGSGGGGSGGGGSGGGGSGGGGSGGGGSGGGGSEVQLVESGGGLVQPGGSLRLSCAASGSTFIINVVRWYRRAPGKQRELVATISSGGNANYVDSVRGRFTISRDNSKNTVYLQMNSLRPEDTAVYYCNVPTTHYGGVYYGPYWGQGTLVTVSS
notes: MMP13-Aggrecan bispecific Nanobody construct; also called 62C02SO-114F08SO-114F08SO
B2: 517A01-40E09 clone 80 (bispecific antibody)
chain: EVQLVESGGGLVQPGGSLRLSCAASGRTFSSYAMGWFRQAPGKEREFVAAISWSGGSTYYADSVKGRFTISRDNSKNTVYLQMNSLRPEDTAVYYCTAALAVYGPNRYRYGPVGEYNYWGQGTLVTVSSGGGGSGGGGSGGGGSGGGGSGGGGSGGGGSGGGGSEVQLVESGGGSVQAGGSLRLSCAASGSTFSRYSMNWYRQAPGKQREFVAGISVGRITNYAVSVRGRFTISRDNAEGTGYLQMNSLKPEDTAVYYCNAGGLQGYWGLGTLVTVSS
B3: C0101PMP062C02 (VHH)
VHH: EVQLVESGGALVRPGGSLRLSCAASGFAFSAAYMSWVRQAPGRGLEWVSSISDDGSKTYYADSVKGRFTISRDNAKNTVYLQMNNLKPDDTAVYYCNTGYGATTTRPGRYWGQGTQVTVSS
notes: Profile 2 Nanobody; also called C0101062C02
B4: 516G08-40E09 clone 76 (bispecific antibody)
chain: EVQLVESGGGLVQPGGSLRLSCAGSGSIFRINVMAWYRQAPGKQRELVAAITSGGTTNYADSVKGRFTISRDNSKNTVYLQMNSLRPEDTAVYYCYADIGWPYVLDYDFWGQGTLVTVSSGGGGSGGGGSGGGGSGGGGSGGGGSGGGGSGGGGSEVQLVESGGGSVQAGGSLRLSCAASGSTFSRYSMNWYRQAPGKQREFVAGISVGRITNYAVSVRGRFTISRDNAEGTGYLQMNSLKPEDTAVYYCNAGGLQGYWGLGTLVTVSS
B5: 40E09-517A01 clone 71 (bispecific antibody)
chain: EVQLVESGGGSVQAGGSLRLSCAASGSTFSRYSMNWYRQAPGKQREFVAGISVGRITNYAVSVRGRFTISRDNAEGTGYLQMNSLKPEDTAVYYCNAGGLQGYWGLGTLVTVSSGGGGSGGGGSGGGGSGGGGSGGGGSGGGGSGGGGSEVQLVESGGGLVQPGGSLRLSCAASGRTFSSYAMGWFRQAPGKEREFVAAISWSGGSTYYADSVKGRFTISRDNSKNTVYLQMNSLRPEDTAVYYCTAALAVYGPNRYRYGPVGEYNYWGQGTLVTVSS
B6: 40E09-516G08 clone 70 (bispecific antibody)
chain: EVQLVESGGGSVQAGGSLRLSCAASGSTFSRYSMNWYRQAPGKQREFVAGISVGRITNYAVSVRGRFTISRDNAEGTGYLQMNSLKPEDTAVYYCNAGGLQGYWGLGTLVTVSSGGGGSGGGGSGGGGSGGGGSGGGGSGGGGSGGGGSEVQLVESGGGLVQPGGSLRLSCAGSGSIFRINVMAWYRQAPGKQRELVAAITSGGTTNYADSVKGRFTISRDNSKNTVYLQMNSLRPEDTAVYYCYADIGWPYVLDYDFWGQGTLVTVSS
B7: C0101PMP516G08 (VHH)
VHH: DVQLVESGGGLVQPGGSLRLSCAGSGSIFRINVMAWYRQAPGKQRELVAAITSGGTTNYADSVKGRFTISRDNSKNTVYLQMNSLRPEDTAVYYCYADIGWPYVLDYDFWGQGTLVTVSS
notes: Profile 2 Nanobody; also called C0101516G08
B8: 62C02-40E09 clone 72 (bispecific antibody)
chain: EVQLVESGGALVRPGGSLRLSCAASGFAFSAAYMSWVRQAPGRGLEWVSSISDDGSKTYYADSVKGRFTISRDNAKNTVYLQMNNLKPDDTAVYYCNTGYGATTTRPGRYWGQGTLVTVSSGGGGSGGGGSGGGGSGGGGSGGGGSGGGGSGGGGSEVQLVESGGGSVQAGGSLRLSCAASGSTFSRYSMNWYRQAPGKQREFVAGISVGRITNYAVSVRGRFTISRDNAEGTGYLQMNSLKPEDTAVYYCNAGGLQGYWGLGTLVTVSS
B9: 40E09-62C02 clone 69 (bispecific antibody)
chain: EVQLVESGGGSVQAGGSLRLSCAASGSTFSRYSMNWYRQAPGKQREFVAGISVGRITNYAVSVRGRFTISRDNAEGTGYLQMNSLKPEDTAVYYCNAGGLQGYWGLGTLVTVSSGGGGSGGGGSGGGGSGGGGSGGGGSGGGGSGGGGSEVQLVESGGALVRPGGSLRLSCAASGFAFSAAYMSWVRQAPGRGLEWVSSISDDGSKTYYADSVKGRFTISRDNAKNTVYLQMNNLKPDDTAVYYCNTGYGATTTRPGRYWGQGTLVTVSS
B10: C0101PMP529C12 (VHH)
VHH: DVQLVESGGGLVQPGGSLRLSCVASGSIFSINAMGWYRQAPGKQRELVAAISSGGSTYYADSVKGRFTISRDNSKNTVYLQMNSLRPEDTAVYYCNAAVDASRGLPYELYYYWGQGTLVTVSS
notes: Profile 2 Nanobody; also called C0101529C12
B11: C0101PMP519E04 (VHH)
VHH: DVQLVESGGGLVQPGGSLRLSCVASGPTFSDYAMGWFRQAPGKEREFVAAISWSGGSTYYADSVKGRFTISRDNSKNTVYLQMNSLRPEDTAVYYCTAARGGGYRASGGPLSEYNYWGQGTLVTVSS
notes: Profile 2 Nanobody
B12: C0101PMP529G11 (VHH)
VHH: B7 VHH with G24A, V33A, A35G, T52I, N58Y
notes: Profile 2 Nanobody
B13: C0101PMP521F02 (VHH)
VHH: DVQLVESGGGLVQPGGSLRLSCVASGLTFSSYAMGWFRQAPGKEREFVAAISWSGGRTYYADSVKGRFTISRDNSKNTVYLQMNSLRPEDTAVYYCTAARGPGSVGPSEEYNYWGQGTLVTVSS
notes: Profile 2 Nanobody
B14: C0101PMP063F01 (VHH)
VHH: EVQLVESGGGLVQPGGSLRLSCSASTGIFRINTMGWHRQAPGKQRDLVATFTSDDNTKYADSVKGRFTISRDNAENTVYLQMNDLKPEDTAVYYCHATTVMYDSNSPDYWGQGTQVTVSS
notes: Profile 2 Nanobody
B15: C0101PMP520B06 (VHH)
VHH: DVQLVESGGGLVQPGGSLRLSCAASGRTFSSYAMGWFRQAPGKEREFVAAISWGGGSTYYSDSVKGRFTISRDNSKNTVYLQMNSLRPEDTAVYYCTAALGSTGSGSTPVPEYRYWGQGTLVTVSS
notes: Profile 2 Nanobody

molecular target: T1, Aggrecan; test: competition ELISA (CAP) on Aggrecan; competitor not stated
T1 construct: also called CAP

IC50 [nM]	Binder
0.23	B1

molecular target: T2, activated rat MMP13 (rat, UniProt P23097 99-466); test: cell-based or functional assay

IC50, (adapted) rat fluorogenic peptide assay [nM]	Binder
0.13	B2
2.88	B3
0.16	B4
0.11	B5
0.12	B6
4.98	B7
0.1	B8
1.12	B9

molecular target: T3, activated human MMP13 (human, UniProt P45452 104-471); test: cell-based or functional assay

IC50, human fluorogenic collagen assay [nM]	Binder
4.06	B2
8.32	B3
3.55	B4
6.5	B5
2.9	B6
3.78	B7
2.4	B8

molecular target: T4, activated MMP13 (species not stated) (Homo sapiens (Human), UniProt P45452 104-471, Biotinylated in the TIMP-2 competition ELISA (sites not given). Activated form: pro-peptide removed.); test: TIMP-2 competition ELISA; Nanobody pre-incubated with 1.26 nM activated MMP13-biotin, binding to captured TIMP-2
T4 construct: campaign 4 ELISA; Probably human

IC50 [nM]	Binder
0.4	B10
0.9	B3
5.5	B11
0.5	B7
7.9	B12
8.5	B13
177	B14
9.3	B15

molecular target: bovine MMP13 (bovine, UniProt O77656 104-471); test: cell-based or functional assay

IC50, bovine fluorogenic peptide assay [nM]	Binder
1.2	B10
3.1	B3
17.1	B11
1.5	B7
20.1	B12
16.1	B13
191	B14
27.7	B15

molecular target: T2, activated rat MMP13; test: cell-based or functional assay; remark: another data set of the same source

IC50, rat fluorogenic peptide assay [nM]	Binder
0.2	B10
1.1	B3
3	B11
5.2	B7
80.6	B12
2.1	B13
20.2	B14
7.8	B15

molecular target: activated dog MMP13 (dog, UniProt P45452 104-471 (human entry)); test: cell-based or functional assay

IC50, dog fluorogenic peptide assay [nM]	Binder
0.2	B10
1	B3
7	B11
4.4	B7
39.1	B12
5.5	B13
73.9	B14
17.3	B15

molecular target: T3, activated human MMP13; test: cell-based or functional assay; remark: another data set of the same source

IC50, human fluorogenic collagen assay [nM]	IC50, human fluorogenic peptide assay [nM]	IC50, human collagenolytic assay [nM]	Binder
4.9	1.2	–	B10
8.3	1.4	1.4	B3
24.8	9.5	–	B11
3.8	0.8	0.9	B7
17.9	10.3	–	B12
20.7	7.2	–	B13
134	82.4	–	B14
27.5	13.4	–	B15

molecular target: cynomolgus MMP13 (cynomolgus, UniProt A0A2K5U988 104-471); test: cell-based or functional assay

IC50, cyno fluorogenic peptide assay [nM]	Binder
0.7	B10
1.4	B3
7.2	B11
0.4	B7
7.1	B12
7	B13
108	B14
9.5	B15

molecular target: T3, activated human MMP13; test: cell-based or functional assay; remark: another data set of the same source

potency, human fluorogenic peptide assay [nM]	Binder
0.953	B1
